Like-named read-outs stand apart in the source and are kept apart here.
Legend:
Test in all cases: BLI
[1] = molecular target: T1, Biotin-CGRP(8-37)NH2[N31D/S34P/K35W/A36S] (human)
T1 sequence (P06881 90-119 with N31D S34P K35W A36S, looked up): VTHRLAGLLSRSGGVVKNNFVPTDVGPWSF

[2] = molecular target: biotin-CGRP(8-37)NH2 (human)
[3] = molecular target: T1, Biotin-CGRP(8-37)NH2[N31D/S34P/K35W/A36S] (human); remark: listed apart in the source

In the case of “RAMP1.24-111-(GS)5-CLR.29-134-H6 (CLR:RAMP1 ECD fusion protein) (from UniProt O60894 24-111; Q16602 29-134) (receptor)”, the half-life [1] is reported as 1.52 min, the residence time [1] is reported as 2.18 min and the Kd [2] is reported as 52.2 µM. It also gave a koff [2] of 3.3 s⁻¹, a kon [2] of 63300 M⁻¹ s⁻¹ and a residence time [3] of 132 s.

— paper PMC12262204
